The source of these data is paper PMC3315474.

The data set has as its system HSF-3xFLAG (Heat Shock Factor) (Drosophila (species not stated)). As to the kind of experiment: EMSA. As to conditions: Kd per HSF trimer, 20 mM HEPES pH 7.9, 100 mM NaCl, 3 mM MgCl2, 1 mM EDTA, 4 mM DTT, 10% glycerol, 0.1% NP-40, 300 ug/ml BSA, 10 ul, 200 amol probe, 30 min, room temperature. A general note: Mobility shift assays separate free from complexed probe on a gel.

The term Kd denotes the free concentration of one partner at which half of the binding sites on the other are occupied at equilibrium, for simple one-to-one binding. Take HSE chr3L:4073542 (97.5 pM): the Kd came to 0.0975 nM.
On the same count and under the same terms, then HSE chr2R:3529792 (308 pM), with 0.308 nM.
Substance HSE chr2L:5009892 (42.6 pM) registered a Kd (Methods print 42.7 pM) of 0.0426 nM. This counts as picomolar.
On to HSE chr3L:13470978 (221 pM), for which the Kd (HSF up to 1.5 nM monomer) turned out to be 0.221 nM.
As to HSE chrX:3380775 (224 pM), the Kd came to 0.224 nM. That is a sub-nanomolar value.
